In publication PMC6405930, “Conservation of the Amyloid Interactome Across Diverse Fibrillar Structures” (Scientific Reports, 2019):

Legend:
[1] = tested on: T1, Ab1 fibrils; assay: Fibril incubation with plasma, quantitative MS/MS of bound proteins; format: binding, human; conditions: 50:1 w/w plasma protein:fibril
T1 construct: Synthetic amyloid β peptide 1–40 was purchased from Caslo Aps (Lyngby, Denmark); purchased Caslo Aps (Lyngby, Denmark); host or cells: synthetic peptide
Description: (§1) Plasma and CSF solutions were centrifuged (40,000 g, 20 min) to remove any aggregates. The protein concentration was determined using 280 nm absorbance assuming 1 Abs = 1 mg/mL. Samples with fibril material (20 μg), plasma (500 μg) or CSF (40 μg) proteins were prepared in 200 μL PBS buffer with 5 mM EDTA. Control samples (without fibril material) were prepared similarly. All samples were incubated at room temperature for one hour under gentle agitation. Fibrils and fibril-bound proteins were pelleted by centrifugation at 17,000 g for 30 minutes. The supernatant (175 μL) was removed and the aggregate was re-suspended in 175 μL PBS and pelleted again before further preparation for gel analysis and spin-filter assisted digest for quantitative MS/MS.
(§2) The fibril-protein pellets were transferred to spin-filters (0.22 μm), washed twice in PBS (100 μL) and once in 1 M NaCl (100 μL). The fibrils and fibril-bound proteins were dissolved by one-hour incubation in 100 μL 6 M guanidinium chloride followed by elution from the spin-filter. The eluted proteins were loaded onto a 3 kDa MWCO filter unit for filter-assisted unfolding, reduction, alkylation, and trypsin digestion. In brief, samples were washed twice in 8 M urea, once in 8 M urea with 50 mM DTT, once in 8 M urea with 50 mM iodoaceteamide, and twice in 8 M Urea. The filter units were dried by centrifugation (14,000 g in 30 minutes) after every addition. Trypsin digestion was carried out with 0.25 μg sequencing grade trypsin from Sigma Aldrich in 50 mM ammonium bicarbonate overnight at 37 °C. The tryptic peptides were collected by centrifugation, acidified with TFA (0.1%) and micro-purified using POROS R2 column material (Applied Biosystems) packed in P200 pipette tips (Sarstedt).
(§3) LC-MS/MS analyses were performed on an EASY-nLC II system (Thermo Fisher Scientific) connected to a TripleTOF 5600+ mass spectrometer (Sciex) equipped with a NanoSpray III source (Sciex) and operated under Analyst TF 1.6.0 control.
(§4) The micro-purified tryptic peptides were dissolved in 0.1% formic acid, injected and trapped on an in-house packed trap column (2 cm × 100 μm I.D) with RP ReproSil-Pur C18-AQ 3 μm resin (Dr. Maisch GmbH). Peptides were eluted from the trap column and separated on a 15 cm analytical column (75 μm i.d.) packed in-house in a pulled emitter with RP ReproSil-Pur C18-AQ 3 μm resin (Dr. Maisch GmbH). Elution from the analytical column was performed with a linear gradient from 5% to 35% phase B (90% acetonitrile with 0.1% formic acid) over 20 min for protein identification and 50 min for quantitative analysis, respectively.
(§5) All samples were analysed three times, yielding nine MS/MS experiments for each fibril for both plasma and CSF. For the area-based extracted ion chromatogram (XIC) quantification, the acquisition method was set up as an information-dependent acquisition (IDA) experiment collecting up to 25 MS/MS spectra in each 1.6 sec cycle using an exclusion window of 6 sec.
(§6) XIC quantification was based on the average ion intensity of the three most abundant peptides for each protein. Only proteins quantified in at least four out of nine MS/MS experiments per fibril were included in the quantification. The total ion scores were visualized after grouping the proteins according to function (Figure S11).
(§7) For each MS/MS experiment, the ion intensities of the individual proteins were normalized to the total ion intensity of that MS/MS experiment to achieve a relative protein composition. The contribution of each protein was averaged over all nine MS/MS experiments (Tables 1 and 2).

[2] = tested on: T2, Ab2 fibrils; assay: as above; format: binding, human; conditions: 50:1 w/w plasma protein:fibril
T2 construct: Two structurally distinct fibrils of the Aβ(1–40) peptide associated with AD
Description: as §1, with “Samples with fibril material (20 μg), plasma (500 μg) or CSF (40 μg) proteins were prepared in 200 μL PBS buffer with 5 mM EDTA.” left out
as §2, §3, §4, §5, §6, §7

[3] = biological target: T3, glucagon fibrils (Homo sapiens, UniProt P01275); assay: as above; format: binding; conditions: 50:1 w/w plasma protein:fibril
T3 construct: fibrils of the peptide hormone glucagon
Description: as §1, with “Samples with fibril material (20 μg), plasma (500 μg) or CSF (40 μg) proteins were prepared in 200 μL PBS buffer with 5 mM EDTA.” left out
as §2, §3, §4, §5, §6, §7

[4] = biological target: T4, C-36 fibrils (Homo sapiens, UniProt P01009); assay: as above; format: binding; conditions: 50:1 w/w plasma protein:fibril
T4 construct: the 36 residue C-terminal fragment of α1-antitrypsin (C-36)
Description: as §1, with “Samples with fibril material (20 μg), plasma (500 μg) or CSF (40 μg) proteins were prepared in 200 μL PBS buffer with 5 mM EDTA.” left out
as §2, §3, §4, §5, §6, §7

[5] = biological target: T5, αSN fibrils (Homo sapiens, UniProt P37840); assay: as above; format: binding; design: key to Identification status of plasma protein bound: αSN: *: Identified, but not quantified; —: Not identified in any of the samples; conditions: for Identification status of plasma protein bound: αSN: symbol cells
Description: as §1, with “Samples with fibril material (20 μg), plasma (500 μg) or CSF (40 μg) proteins were prepared in 200 μL PBS buffer with 5 mM EDTA.” left out
as §2, §3, §4, §5, §6, §7

[6] = tested on: T6, FAS4-AD aggregates; assay: as above; format: binding, human; design: key to Identification status of plasma protein bound: FAS4-AD: *: Identified, but not quantified; —: Not identified in any of the samples; conditions: for Identification status of plasma protein bound: FAS4-AD: symbol cells
T6 construct: aggregates of a mutated version of the FAS1-4 domain of TGFBIp
Description: as §1, with “Samples with fibril material (20 μg), plasma (500 μg) or CSF (40 μg) proteins were prepared in 200 μL PBS buffer with 5 mM EDTA.” left out
as §2, §3, §4, §5, §6, §7

[7] = tested on: T1, Ab1 fibrils; assay: Fibril incubation with CSF, quantitative MS/MS of bound proteins; format: binding, human; design: key to Identification status of CSF protein bound: Ab1: *: Identified, but not quantified; —: Not identified in any of the samples; conditions: symbol cells
[8] = tested on: T2, Ab2 fibrils; assay: as above; format: binding, human; design: key to Identification status of CSF protein bound: Ab2: *: Identified, but not quantified; —: Not identified in any of the samples; conditions: symbol cells
[9] = biological target: T3, glucagon fibrils; assay: as above; format: binding; conditions: 4:1 w/w CSF protein:fibril
[10] = biological target: T4, C-36 fibrils; assay: as above; format: binding; conditions: 4:1 w/w CSF protein:fibril
[11] = biological target: T5, αSN fibrils; assay: as above; format: binding; design: key to Identification status of CSF protein bound: αSN: *: Identified, but not quantified; —: Not identified in any of the samples; conditions: symbol cells
Description: as §1, with “Samples with fibril material (20 μg), plasma (500 μg) or CSF (40 μg) proteins were prepared in 200 μL PBS buffer with 5 mM EDTA.” left out
as §2, §3, §4, §5, §6, §7

[12] = tested on: T6, FAS4-AD aggregates; assay: as above; format: binding, human; design: key to Identification status of CSF protein bound: FAS4-AD: *: Identified, but not quantified; —: Not identified in any of the samples; conditions: symbol cells

T3 sequence (P01275 53-81 limits assumed): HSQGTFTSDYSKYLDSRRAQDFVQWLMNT
T4 sequence (P01009 383-418 limits assumed): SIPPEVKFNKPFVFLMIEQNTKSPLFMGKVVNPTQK

| Molecule | Relative composition of plasma proteins bound: Ab1 [1] | Relative composition of plasma proteins bound: Ab2 [2] | Relative composition of plasma proteins bound: Glucagon [3] | Relative composition of plasma proteins bound: C-36 [4] | Relative composition of plasma proteins bound: αSN ([5]; 50:1 w/w plasma protein:fibril) | Relative composition of plasma proteins bound: FAS4-AD ([6]; 50:1 w/w plasma protein:fibril) | Identification status of CSF protein bound: Ab1 [7] | Identification status of CSF protein bound: Ab2 [8] | Relative composition of CSF proteins bound: Glucagon [9] | Relative composition of CSF proteins bound: C-36 [10] | Identification status of CSF protein bound: αSN [11] | Identification status of CSF protein bound: FAS4-AD [12] | Identification status of plasma protein bound: αSN [5] | Identification status of plasma protein bound: FAS4-AD [6] |
| --- | --- | --- | --- | --- | --- | --- | --- | --- | --- | --- | --- | --- | --- | --- |
| Ig α-1 chain C region: plasma/CSF protein bound to fibrils (protein, UniProt P01876 1-398, looked up) Immunoglobulin heavy constant …: ASPTSPKVFPLSLCSTQPDGNVVIACLVQGFFPQEPLSVTWSESGQGVTARNFPPSQDASGDLYTTSSQLTLPATQCLAGKSVTCHVKHYTNPSQDVTVPCPVPSTPPTPSPSTPPTPSPSCCHPRLSLHRPALEDLLLGSEANLTCTLTGLRDASGVTFTWTPSSGKSAVQGPPERDLCGCYSVSSVLPGCAEPWNHGKTFTCTAAYPESKTPLTATLSKSGNTFRPEVHLLPPPSEELALNELVTLTCLARGFSPKDVLVRWLQGSQELPREKYLTWASRQEPSQGTTTFAVTSILRVAAEDWKKGDTFSCMVGHEALPLAFTQKTIDRLADWQMPPPYVVLDLPQETLEEETPGANLWPTTITFLTLFLLSLFYSTALTVTSVRGPSGNREGPQY | 1.3 ± 0.1 % of total protein | 1.3 ± 0.3 % of total protein | 1.7 ± 0.0 % of total protein | 1.4 ± 0.4 % of total protein | 0.9 ± 0.3 % of total protein | 3.9 ± 1.6 % of total protein | * | * | 0.2 ± 0.1 % of total protein | 0.5 ± 0.1 % of total protein | — | — |  |  |
| Complement C1r subcomponent: plasma protein bound to fibrils (protein, UniProt P00736 18-705, looked up) Complement C1r subcomponent: SIPIPQKLFGEVTSPLFPKPYPNNFETTTVITVPTGYRVKLVFQQFDLEPSEGCFYDYVKISADKKSLGRFCGQLGSPLGNPPGKKEFMSQGNKMLLTFHTDFSNEENGTIMFYKGFLAYYQAVDLDECASRSKSGEEDPQPQCQHLCHNYVGGYFCSCRPGYELQEDTHSCQAECSSELYTEASGYISSLEYPRSYPPDLRCNYSIRVERGLTLHLKFLEPFDIDDHQQVHCPYDQLQIYANGKNIGEFCGKQRPPDLDTSSNAVDLLFFTDESGDSRGWKLRYTTEIIKCPQPKTLDEFTIIQNLQPQYQFRDYFIATCKQGYQLIEGNQVLHSFTAVCQDDGTWHRAMPRCKIKDCGQPRNLPNGDFRYTTTMGVNTYKARIQYYCHEPYYKMQTRAGSRESEQGVYTCTAQGIWKNEQKGEKIPRCLPVCGKPVNPVEQRQRIIGGQKAKMGNFPWQVFTNIHGRGGGALLGDRWILTAAHTLYPKEHEAQSNASLDVFLGHTNVEELMKLGNHPIRRVSVHPDYRQDESYNFEGDIALLELENSVTLGPNLLPICLPDNDTFYDLGLMGYVSGFGVMEEKIAHDLRFVRLPVANPQACENWLRGKNRMDVFSQNMFCAGHPSLKQDACQGDSGGVFAVRDPNTDRWVATGIVSWGIGCSRGYGFYTKVLNYVDWIKKEMEEED | 0.2 ± 0.0 % of total protein | 0.4 ± 0.1 % of total protein | 0.1 ± 0.0 % of total protein | 0.3 ± 0.1 % of total protein |  |  |  |  |  |  |  |  | * | — |
| Inter-α-trypsin inhibitor heavy chain H2: plasma protein bound to fibrils (protein, UniProt P19823 55-702, looked up) Inter-alpha-trypsin inhibitor …: SLPGESEEMMEEVDQVTLYSYKVQSTITSRMATTMIQSKVVNNSPQPQNVVFDVQIPKGAFISNFSMTVDGKTFRSSIKEKTVGRALYAQARAKGKTAGLVRSSALDMENFRTEVNVLPGAKVQFELHYQEVKWRKLGSYEHRIYLQPGRLAKHLEVDVWVIEPQGLRFLHVPDTFEGHFDGVPVISKGQQKAHVSFKPTVAQQRICPNCRETAVDGELVVLYDVKREEKAGELEVFNGYFVHFFAPDNLDPIPKNILFVIDVSGSMWGVKMKQTVEAMKTILDDLRAEDHFSVIDFNQNIRTWRNDLISATKTQVADAKRYIEKIQPSGGTNINEALLRAIFILNEANNLGLLDPNSVSLIILVSDGDPTVGELKLSKIQKNVKENIQDNISLFSLGMGFDVDYDFLKRLSNENHGIAQRIYGNQDTSSQLKKFYNQVSTPLLRNVQFNYPHTSVTDVTQNNFHNYFGGSEIVVAGKFDPAKLDQIESVITATSANTQLVLETLAQMDDLQDFLSKDKHADPDFTRKLWAYLTINQLLAERSLAPTAAAKRRITRSILQMSLDHHIVTPLTSLVIENEAGDERMLADAPPQDPSCCSGALYYGSKVVPDSTPSWANPSPTPVISMLAQGSQVLESTPPPHVMRVEND | 0.1 ± 0.0 % of total protein | 0.1 ± 0.0 % of total protein | 2.7 ± 0.2 % of total protein | 0.3 ± 0.1 % of total protein |  |  |  |  |  |  |  |  | * | — |
